{
  "source": "paper PMC8825253",
  "about": "“pHBMT1, a BAHD-family monolignol acyltransferase, mediates lignin acylation in poplar” (Plant Physiology, 2021)",
  "assay_in_all_cases": "LC-MS product quantification, Lineweaver-Burk",
  "format_in_all_cases": "biochemical, Populus trichocarpa",
  "key": {"[1]": {"system": "CC(C)(COP(=O)(O)OP(=O)(O)OC[C@H]1O[C@@H](n2cnc3c(N)ncnc32)[C@H](O)[C@@H]1OP(=O)(O)O)[C@@H](O)C(=O)NCCC(=O)NCCSC(=O)c1ccc(O)cc1", "conditions": "saturating sinapyl alcohol, 50 mM sodium phosphate pH 6, 1 mM DTT, wheatgerm cell-free enzyme", "from_the_text": "(§1) LC-MS product quantification, Lineweaver-Burk on pHBMT1 (Potri.001G448000)"}, "[2]": {"system": "COc1cc(/C=C/CO)cc(OC)c1O", "conditions": "saturating p-hydroxybenzoyl-CoA, 50 mM sodium phosphate pH 6, 1 mM DTT, wheatgerm cell-free enzyme", "from_the_text": "as §1"}, "[3]": {"system": "COc1cc(/C=C/CO)ccc1O", "conditions": "saturating p-hydroxybenzoyl-CoA, 50 mM sodium phosphate pH 6, 1 mM DTT, wheatgerm cell-free enzyme", "from_the_text": "as §1"}},
  "data": [
    {"substance": "pHBMT1 (Potri.001G448000) (Populus trichocarpa)", "values": [
      {"measurement": "Km", "setting": "[1]", "value": "448 ± 21", "unit": "µM"},
      {"measurement": "kcat", "setting": "[1]", "value": "0.18 ± 0.03", "unit": "s⁻¹"},
      {"measurement": "kcat/Km", "setting": "[1]", "value": 400, "unit": "M⁻¹ s⁻¹"},
      {"measurement": "Km", "setting": "[2]", "value": "300 ± 72", "unit": "µM"},
      {"measurement": "kcat", "setting": "[2]", "value": "0.13 ± 0.01", "unit": "s⁻¹"},
      {"measurement": "kcat/Km", "setting": "[2]", "value": 490, "unit": "M⁻¹ s⁻¹"},
      {"measurement": "Km", "setting": "[3]", "value": "954 ± 411", "unit": "µM"},
      {"measurement": "kcat", "setting": "[3]", "value": "0.1 ± 0.02", "unit": "s⁻¹"}
    ]}
  ]
}
